Where two headings read alike, the source gives them in different places.
How the values were obtained:
[1] = biological target: T1, Botulinum neurotoxin type A (Xeomin) (Clostridium botulinum serotype A, UniProt P0DPI1 2-1296)
T1 sequence (P0DPI1 2-1296): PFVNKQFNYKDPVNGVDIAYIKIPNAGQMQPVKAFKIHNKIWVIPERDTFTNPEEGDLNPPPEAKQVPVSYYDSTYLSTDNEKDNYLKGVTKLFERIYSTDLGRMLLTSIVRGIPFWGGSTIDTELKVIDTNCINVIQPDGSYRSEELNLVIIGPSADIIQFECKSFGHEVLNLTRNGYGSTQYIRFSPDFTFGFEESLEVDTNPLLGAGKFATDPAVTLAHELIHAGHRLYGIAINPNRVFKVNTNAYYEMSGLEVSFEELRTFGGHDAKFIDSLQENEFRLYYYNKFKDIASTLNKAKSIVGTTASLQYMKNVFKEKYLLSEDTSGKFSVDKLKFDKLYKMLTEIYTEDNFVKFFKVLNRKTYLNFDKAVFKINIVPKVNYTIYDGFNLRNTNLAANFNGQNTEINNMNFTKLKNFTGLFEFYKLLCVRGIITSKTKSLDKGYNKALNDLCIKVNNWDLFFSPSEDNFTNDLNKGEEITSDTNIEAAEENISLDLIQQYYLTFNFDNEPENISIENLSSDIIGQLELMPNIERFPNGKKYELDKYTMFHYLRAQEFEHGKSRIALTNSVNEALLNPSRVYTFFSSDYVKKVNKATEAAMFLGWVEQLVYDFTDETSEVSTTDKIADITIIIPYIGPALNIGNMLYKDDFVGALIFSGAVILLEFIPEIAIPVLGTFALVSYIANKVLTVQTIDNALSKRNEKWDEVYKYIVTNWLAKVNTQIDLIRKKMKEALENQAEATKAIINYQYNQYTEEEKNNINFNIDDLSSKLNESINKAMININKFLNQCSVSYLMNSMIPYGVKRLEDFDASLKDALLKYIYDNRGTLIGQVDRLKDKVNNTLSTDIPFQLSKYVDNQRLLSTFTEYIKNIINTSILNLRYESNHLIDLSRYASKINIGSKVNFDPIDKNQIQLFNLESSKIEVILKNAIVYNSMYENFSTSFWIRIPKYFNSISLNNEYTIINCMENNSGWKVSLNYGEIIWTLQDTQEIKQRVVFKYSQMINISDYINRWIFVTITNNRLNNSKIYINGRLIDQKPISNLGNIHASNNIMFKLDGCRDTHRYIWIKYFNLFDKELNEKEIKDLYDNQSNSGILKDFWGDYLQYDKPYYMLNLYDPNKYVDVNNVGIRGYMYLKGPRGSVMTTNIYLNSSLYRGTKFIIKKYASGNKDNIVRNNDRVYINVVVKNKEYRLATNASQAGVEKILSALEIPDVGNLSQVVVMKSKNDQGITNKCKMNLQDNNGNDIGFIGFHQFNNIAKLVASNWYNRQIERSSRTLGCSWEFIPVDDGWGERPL

[2] = biological target: T1, Botulinum neurotoxin type A (Xeomin); assay: BLI; settings: protein: commercial
[3] = biological target: Botulinum neurotoxin type A (Xeomin) (Clostridium botulinum serotype A, UniProt P0DPI1 2-1296); assay: SERS aptasensor; settings: protein: commercial; label: 3' TAMRA
Target sequence in this assay (P0DPI1 2-1296): as above

AGTGCGGTGAGCCGTCGGACATACAAATAC (ssDNA) [SH-H8-TAMRA]
binding result [1]: no binding

B1: Apt_2.22 (structured_DNA)
DNA: ATACCAGCTTATTCAATTGACATGACTGGGATTTTTGGCGAAATCGAAGGAAGCGGAGAGATAGTAAGTGCAATCT
Kd [2]: 7 ± 4 nM

B2: Apt_2.22_mod (structured_DNA)
DNA: B1 DNA
modifications: 5' SH-(CH2)6
binding result [3]: binds

Source: publication PMC10535226, “Rapid SERS Detection of Botulinum Neurotoxin Type A”
